What was measured:
Details in all cases: remark: other sources report otherwise
[1] = biological target: T1, LFA-1 (lymphocyte function-associated antigen-1), purified heterodimer captured on ELISA plates (human), P20701
[2] = biological target: T1, LFA-1 (lymphocyte function-associated …); test: LFA-1/small molecule ELISA: sICAM-1 titrated against 25 nM fluorescein-labelled compound 2B on antibody-captured LFA-1
[3] = biological target: T1, LFA-1 (lymphocyte function-associated …); test: LFA-1/ICAM-1 ELISA: sICAM-1 titrated against ICAM-1-Ig on antibody-captured LFA-1; reference compound 3 (2 nM IC50)

T1 sequence (P20701 26-1170 limits assumed, form in doubt, chain 1 of 2): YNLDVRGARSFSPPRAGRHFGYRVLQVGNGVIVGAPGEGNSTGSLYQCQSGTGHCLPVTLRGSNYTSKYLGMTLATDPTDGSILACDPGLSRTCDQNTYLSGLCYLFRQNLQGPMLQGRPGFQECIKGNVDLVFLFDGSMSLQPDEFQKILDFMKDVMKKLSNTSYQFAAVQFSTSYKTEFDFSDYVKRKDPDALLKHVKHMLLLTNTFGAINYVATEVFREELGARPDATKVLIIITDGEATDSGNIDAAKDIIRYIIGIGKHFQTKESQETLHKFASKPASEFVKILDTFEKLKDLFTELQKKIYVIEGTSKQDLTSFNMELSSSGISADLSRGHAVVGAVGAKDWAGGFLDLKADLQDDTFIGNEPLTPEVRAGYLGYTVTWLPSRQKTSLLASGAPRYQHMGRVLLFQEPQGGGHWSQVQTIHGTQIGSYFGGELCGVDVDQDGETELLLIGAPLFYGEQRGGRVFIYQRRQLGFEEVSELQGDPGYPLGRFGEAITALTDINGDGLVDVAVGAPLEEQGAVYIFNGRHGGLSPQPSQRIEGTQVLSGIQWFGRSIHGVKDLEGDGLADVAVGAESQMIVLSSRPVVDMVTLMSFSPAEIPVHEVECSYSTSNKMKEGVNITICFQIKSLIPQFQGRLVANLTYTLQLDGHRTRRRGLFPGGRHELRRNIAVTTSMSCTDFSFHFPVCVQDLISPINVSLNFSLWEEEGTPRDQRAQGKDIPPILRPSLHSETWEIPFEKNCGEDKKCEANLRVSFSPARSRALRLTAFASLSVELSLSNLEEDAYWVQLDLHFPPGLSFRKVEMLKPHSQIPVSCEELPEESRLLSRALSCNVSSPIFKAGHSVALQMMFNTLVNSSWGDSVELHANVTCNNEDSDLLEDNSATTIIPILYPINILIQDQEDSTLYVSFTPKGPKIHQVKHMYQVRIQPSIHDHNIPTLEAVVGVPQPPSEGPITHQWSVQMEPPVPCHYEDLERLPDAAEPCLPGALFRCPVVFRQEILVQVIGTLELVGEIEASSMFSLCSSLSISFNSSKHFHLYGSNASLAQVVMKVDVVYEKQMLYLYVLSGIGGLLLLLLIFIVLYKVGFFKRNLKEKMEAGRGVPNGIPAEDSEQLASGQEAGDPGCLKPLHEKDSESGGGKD
T1 sequence (P05107 23-769 limits assumed, form in doubt, chain 2 of 2, further chain): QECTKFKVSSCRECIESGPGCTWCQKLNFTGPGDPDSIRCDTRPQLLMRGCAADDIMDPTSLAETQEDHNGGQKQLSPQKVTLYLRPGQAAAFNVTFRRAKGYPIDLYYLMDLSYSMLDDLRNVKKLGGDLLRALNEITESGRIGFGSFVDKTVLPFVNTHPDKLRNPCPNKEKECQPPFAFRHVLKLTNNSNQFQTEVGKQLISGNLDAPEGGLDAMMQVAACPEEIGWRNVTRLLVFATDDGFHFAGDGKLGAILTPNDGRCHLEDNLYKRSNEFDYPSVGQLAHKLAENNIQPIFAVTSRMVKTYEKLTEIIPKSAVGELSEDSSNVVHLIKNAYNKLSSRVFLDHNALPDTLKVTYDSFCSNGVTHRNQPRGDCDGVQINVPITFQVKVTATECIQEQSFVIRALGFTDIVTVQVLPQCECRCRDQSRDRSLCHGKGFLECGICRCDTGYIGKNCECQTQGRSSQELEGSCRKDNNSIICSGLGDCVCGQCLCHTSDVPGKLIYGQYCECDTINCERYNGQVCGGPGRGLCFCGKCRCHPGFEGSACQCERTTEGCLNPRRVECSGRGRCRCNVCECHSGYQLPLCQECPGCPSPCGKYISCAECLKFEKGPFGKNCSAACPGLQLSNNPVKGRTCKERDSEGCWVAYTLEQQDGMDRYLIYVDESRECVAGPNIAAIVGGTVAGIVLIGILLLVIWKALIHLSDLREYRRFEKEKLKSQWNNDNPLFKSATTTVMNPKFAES

- Schild regression y-intercept [1]: 8.51
- IC50 [2]: 1200 nM
- fold IC50 against compound 3 [3]: > 100 fold
B1: sICAM-1 (soluble ICAM-1), P05362 28-480 (ligand, UniProt P05362 28-480, looked up)
chain: QTSVSPSKVILPRGGSVLVTCSTSCDQPKLLGIETPLPKKELLLPGNNRKVYELSNVQEDSQPMCYSNCPDGQSTAKTFLTVYWTPERVELAPLPSWQPVGKNLTLRCQVEGGAPRANLTVVLLRGEKELKREPAVGEPAEVTTTVLVRRDHHGANFSCRTELDLRPQGLELFENTSAPYQLQTFVLPATPPQLVSPRVLEVDTQGTVVCSLDGLFPVSEAQVHLALGDQRLNPTVTYGNDSFSAKASVSVTAEDEGTQRLTCAVILGNQSQETLQTVTIYSFPAPNVILTKPEVSEGTEVTVKCEAHPRAKVTLNGVPAQPLGPRAQLLLKATPEDNGRSFSCSATLEVAGQLIHKNQTRELRVLYGPRLDERDCPGNWTWPENSQQTPMCQAWGNPLPELKCLKDGTFPLPIGESVTVTRDLEGTYLCRARSTQGEVTRKVTVNVLSPRYE
